Molecular target: T1, human GDNF family receptor alpha-1 (GFRα1) joined to an Fc domain at its C-terminus (human, UniProt P56159-2 25-445)
T1 construct: Bought from R&D Systems; also called GFRa1-hFc; human GFRα1 Fc chimera (R&D Systems); not shown: human Fc domain joined to the C-terminus of GFRα1
T1 sequence (looked up): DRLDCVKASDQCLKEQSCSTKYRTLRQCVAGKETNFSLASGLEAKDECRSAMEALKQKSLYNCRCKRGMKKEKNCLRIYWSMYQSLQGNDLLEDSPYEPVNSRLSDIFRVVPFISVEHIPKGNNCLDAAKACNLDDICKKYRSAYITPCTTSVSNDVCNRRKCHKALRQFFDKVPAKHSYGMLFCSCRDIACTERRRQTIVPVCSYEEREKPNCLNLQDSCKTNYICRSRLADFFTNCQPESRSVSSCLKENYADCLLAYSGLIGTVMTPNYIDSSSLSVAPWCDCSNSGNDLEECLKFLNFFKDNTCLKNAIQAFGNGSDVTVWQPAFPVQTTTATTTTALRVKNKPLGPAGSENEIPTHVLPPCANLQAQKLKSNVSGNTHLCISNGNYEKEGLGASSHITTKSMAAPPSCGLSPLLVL
Experiment: SPR; GFRα1-Fc chimera captured on CM5 chip by His-tag capture kit, analyte flowed over; apparent KD (KD,app)
Excerpt: Surface Plasmon Resonance (SPR) was used to determine the binding affinities of the GDNF fusion polypeptides to GFRα1. The GDNF fusion polypeptides in this example include fusion polypeptides 2-4 as described in Example 1, as well as Fc (T366W)-GGG-hGDNF₁₁₇₋₂₁₁ (SEQ ID NO: 37) (fusion polypeptide 6) which has an Fc domain having the amino acid substitution T366W (relative to the sequence of human IgG1) joined to the N-terminus of the GDNF variant having amino acids 117-211 of SEQ ID NO: 1 through a GGG linker. The SPR assay was configured to capture human GFRα1, GFRα2, and GFRα3 Fc chimeras (R&D Systems) onto a CM5 chip surface using His-tag capture kit (GE Healthcare) to appropriate levels for kinetic analysis. GDNF fusion polypeptides were flowed over the immobilized GFRs to measure the kinetics of GDNF fusion polypeptide and GFR association and dissociation. The binding of various concentrations of GDNF fusion polypeptides was measured in HBS-EP buffer (GE Healthcare) at a flow rate of 30 μL/min. Binding curves were fitted using Scrubber2 software to obtain apparent binding affinities and kinetic constants.

Kd: ~0.9 nM
B1: R&D hGDNF (ligand, human, UniProt P39905 78-211, looked up)
chain: SPDKQMAVLPRRERNRQAAAANPENSRGKGRRGQRGKNRGCVLTAIHLNVTDLGLGYETKEELIFRYCSGSCDAAETTYDKILKNLSRNRRLVSDKVGQACCRPIAFDDDLSFLDDNLVYHILRKHSAKRCGCI
notes: also called human glial-derived neurotrophic factor

— patent US20260022150A1 (KEROS THERAPEUTICS, published 2026)
